Changes are numbered by the printed parent chain. Like-named read-outs stand apart in the source and are kept apart here. Bounds are passed on as bounds.

In assay [1] the target is T1, pKal catalytic domain Mutant 1 (human, UniProt P03952 391-638, limits assumed).
T1 construct: domain: catalytic domain; Expressed in Pichia pastoris, purified by IMAC; not shown: His tag fusion
The assay can be described thus: apparent Ki (Ki,app), enzyme inhibition, pKal catalytic domain Mutant 1. The method, then:
(§1) Apparent Inhibition constants (K_{i,app} values) were measured by pre-incubating enzyme and inhibitor solutions prior to initiating the reactions with substrate. Enzyme and inhibitor were pre-incubated for 2 hours at 30° C. in a 96-well plate by adding 10 μL of a 10× enzyme solution and 10 μL of 10× inhibitor solutions to 70 μL of reaction buffer. Reactions were initiated by the addition of 10 μL of a 10× concentrated stock of substrate, and were monitored at 30° C. in a fluorescence plate reader with the excitation and emission wavelengths set at 360 nm/460 nm, respectively. Kinetic data were acquired by the increase in fluorescence, and initial rates for each condition were plotted against the total inhibitor concentration. The data was fit to the following equation for tight binding inhibitors: […]

Assay [2] has as its target T2, human plasma kallikrein (active form) (human, UniProt P03952 20-390; P03952 391-638).
T2 construct: also called pKal; human pKal
The assay can be described thus: apparent Ki (Ki,app), inhibition of human pKal enzyme activity. As for the experimental part:
as §1

The target of assay [3] is T3, mouse plasma kallikrein (mouse, UniProt P26262 20-638, limits assumed).
T3 construct: also called mouse pKal
The assay can be described thus: apparent Ki (Ki,app), inhibition of mouse pKal enzyme activity. As for the experimental part: as §1
T3 sequence (P26262 20-638 limits assumed): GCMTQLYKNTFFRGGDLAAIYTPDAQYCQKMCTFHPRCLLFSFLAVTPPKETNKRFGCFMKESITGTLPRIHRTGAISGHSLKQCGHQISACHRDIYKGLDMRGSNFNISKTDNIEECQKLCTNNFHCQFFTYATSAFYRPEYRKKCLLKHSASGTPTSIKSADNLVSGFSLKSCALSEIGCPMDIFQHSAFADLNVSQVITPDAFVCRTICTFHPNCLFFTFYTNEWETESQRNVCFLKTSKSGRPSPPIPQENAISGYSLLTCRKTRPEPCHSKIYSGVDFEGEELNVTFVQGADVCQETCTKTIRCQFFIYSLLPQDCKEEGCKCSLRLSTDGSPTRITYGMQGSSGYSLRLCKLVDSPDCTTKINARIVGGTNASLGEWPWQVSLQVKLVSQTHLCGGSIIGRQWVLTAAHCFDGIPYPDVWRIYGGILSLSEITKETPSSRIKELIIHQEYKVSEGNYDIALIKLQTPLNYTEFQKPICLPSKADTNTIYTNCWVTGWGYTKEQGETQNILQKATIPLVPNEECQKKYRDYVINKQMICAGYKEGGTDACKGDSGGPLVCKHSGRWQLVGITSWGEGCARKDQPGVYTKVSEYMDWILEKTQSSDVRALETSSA

The target in assay [4] is T4, pKal catalytic domain Mutant 2 (human, UniProt P03952 391-638, limits assumed).
T4 construct: domain: catalytic domain; Expressed in Pichia pastoris, purified by IMAC; not shown: His tag fusion
The assay can be described thus: apparent Ki (Ki,app), enzyme inhibition, pKal catalytic domain Mutant 2. As for the experimental part:
as §1

The target in assay [5] is T5, wild type pKal catalytic domain (human, UniProt P03952 391-638, limits assumed).
T5 construct: domain: catalytic domain; also called WT cat; Domain; not shown: His tag fusion
Description: apparent Ki (Ki,app), enzyme inhibition, wild type pKal catalytic domain. As for the experimental part:
as §1

The target in assay [6] is T6, human plasma kallikrein (human, UniProt P03952 20-390; P03952 391-638).
T6 construct: two disulfide-linked chains; also called pKal; human pKal
Description: apparent inhibition constant (Ki,app) from enzyme inhibition of human pKal; Fab.
T6 sequence (P03952 20-390, chain 1 of 2): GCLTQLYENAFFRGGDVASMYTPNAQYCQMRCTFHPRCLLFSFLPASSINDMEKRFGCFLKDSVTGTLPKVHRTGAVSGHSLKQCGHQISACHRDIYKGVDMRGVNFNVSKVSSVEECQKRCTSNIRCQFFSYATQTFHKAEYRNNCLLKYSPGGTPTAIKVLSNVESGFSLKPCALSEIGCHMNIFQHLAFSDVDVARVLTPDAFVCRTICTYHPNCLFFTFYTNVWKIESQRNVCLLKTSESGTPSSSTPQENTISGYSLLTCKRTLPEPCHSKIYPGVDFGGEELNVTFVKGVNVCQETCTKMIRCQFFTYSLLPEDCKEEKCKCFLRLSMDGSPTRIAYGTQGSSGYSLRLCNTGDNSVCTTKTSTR
T6 sequence (P03952 391-638, chain 2 of 2): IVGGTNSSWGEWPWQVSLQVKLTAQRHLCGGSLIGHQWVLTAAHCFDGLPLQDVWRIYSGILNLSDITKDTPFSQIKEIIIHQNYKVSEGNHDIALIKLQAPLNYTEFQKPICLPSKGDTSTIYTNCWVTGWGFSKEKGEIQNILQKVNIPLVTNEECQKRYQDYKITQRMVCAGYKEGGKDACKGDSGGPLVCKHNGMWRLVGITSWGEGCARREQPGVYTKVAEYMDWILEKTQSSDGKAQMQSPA

Assay [7] has as its target T7, mouse plasma kallikrein (mouse, UniProt P26262 20-638, limits assumed).
T7 construct: also called mouse pKal; rodent pKal
Description: apparent inhibition constant (Ki,app) from enzyme inhibition of rodent pKal.
T7 sequence (P26262 20-638 limits assumed): as the sequence (P26262 20-638 limits assumed) above

Assay [8] has as its target T3, mouse plasma kallikrein. Description: apparent Ki (Ki,app), inhibition of rodent pKal enzyme activity.
Assay [9] addresses T2, human plasma kallikrein (active form). Description: apparent Ki (Ki,app), inhibition of human pKal enzyme activity. This is another data set of the same source.
Assay [10] deals with T8, human plasma kallikrein (human, UniProt P03952 20-390; P03952 391-638).
T8 construct: two disulfide linked chains; also called pKal; human pKal
The assay can be described thus: Ki,app as an IgG, steady state enzyme kinetics, inhibition of human pKal.
T8 sequence (P03952 20-390, chain 1 of 2): as the sequence (P03952 20-390, chain 1 of 2) above
T8 sequence (P03952 391-638, chain 2 of 2): as the sequence (P03952 391-638, chain 2 of 2) above

In assay [11] the target is T8, human plasma kallikrein. Description: Ki,app of IgG, enzyme inhibition of human pKal.
Assay [12] has as its target T6, human plasma kallikrein. Description: apparent inhibition constant (Ki,app) from enzyme inhibition of human pKal; IgG.
Assay [13] has as its target T8, human plasma kallikrein. Description: Ki,app, enzyme inhibition of pKal; antibody format not stated.
The target of assay [14] is T8, human plasma kallikrein. Description: Ki,app, enzyme inhibition of pKal, Fab.
In the next assay the target is T9, rat plasma kallikrein (rat, UniProt P14272 20-638, limits assumed).
T9 construct: also called rat pKal; rodent pKal
The assay can be described thus: apparent inhibition constant (Ki,app) from enzyme inhibition of rodent pKal.

T5 sequence (P03952 391-638 limits assumed): as the sequence (P03952 391-638, chain 2 of 2) above
T1 sequence (P03952 other isoform, or with tags, fused parts or gaps mutant limits assumed): as the sequence (P03952 391-638, chain 2 of 2) above, with S88A, N91A, S135A, K136A counted along it
T2 sequence (P03952 20-390, chain 1 of 2): as the sequence (P03952 20-390, chain 1 of 2) above
T2 sequence (P03952 391-638, chain 2 of 2): as the sequence (P03952 391-638, chain 2 of 2) above
T4 sequence (P03952 other isoform, or with tags, fused parts or gaps mutant limits assumed): as the sequence (P03952 391-638, chain 2 of 2) above, with R161A, Q163A, Y165A, T168A, R170A counted along it
T9 sequence (P14272 20-638 limits assumed): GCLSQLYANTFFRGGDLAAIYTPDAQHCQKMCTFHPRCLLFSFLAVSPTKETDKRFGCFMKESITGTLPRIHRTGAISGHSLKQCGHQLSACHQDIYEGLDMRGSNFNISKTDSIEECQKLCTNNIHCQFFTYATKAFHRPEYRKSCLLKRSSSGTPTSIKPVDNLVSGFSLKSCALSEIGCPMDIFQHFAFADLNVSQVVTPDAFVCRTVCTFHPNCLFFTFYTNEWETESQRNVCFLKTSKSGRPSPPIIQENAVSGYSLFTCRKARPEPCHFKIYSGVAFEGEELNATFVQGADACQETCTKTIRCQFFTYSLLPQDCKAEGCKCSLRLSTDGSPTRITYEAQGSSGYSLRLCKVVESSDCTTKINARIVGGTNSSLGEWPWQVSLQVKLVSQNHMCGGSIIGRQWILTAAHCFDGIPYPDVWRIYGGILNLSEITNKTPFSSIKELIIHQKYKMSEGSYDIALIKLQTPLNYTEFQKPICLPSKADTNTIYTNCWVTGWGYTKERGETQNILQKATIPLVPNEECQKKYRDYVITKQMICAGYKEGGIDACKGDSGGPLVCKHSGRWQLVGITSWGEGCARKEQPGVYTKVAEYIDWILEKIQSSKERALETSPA

B1: M145-D11 (Fab, V domains shown)
VH: EVQLLESGGGLVQPGGSLRLSCAASGFTFSHYRMSWVRQAPGKGLEWVSSIYPSGGRTVYADSVKGRFTISRDNSKNTLYLQMNSLRAEDTAVYYCAKDKFEWRLLFRGIGNDAFDIWGQGTMVTVSS
VL: QSVLTQPPSVSVSPGQTASITCSGDKLGDKYTSWYQQRPGQSPVLVIYQDIKRPSGIPERFSGSNSGNTATLTISGTQAMDEADYYCQAWDSPNARVFGSGTKVTVL
notes: also called 559A-M145-D11 (sFab); 559A-M0145-D11
On to B1, for which the Ki turned out to be 0.23 nM in assay [1]; 0.79 nM in [2]; 800 nM with mouse plasma kallikrein [3]; 0.1 nM in assay [4]; 0.16 nM in [5].

B2: M142-H08 (Fab) (Fab, V domains shown)
VH: EVQLLESGGGLVQPGGSLRLSCAASGFTFSAYSMIWVRQAPGKGLEWVSYIRPSGGRTTYADSVKGRFTISRDNSKNTLYLQMNSLRAEDTAVYYCARGGLLLWFRELKSNYFDYWGQGTLVTVSS
VL: DIQMTQSPSSLSAFVGDRVTITCRASQPIDNYLNWYHQKPGKAPKLLIYAASRLQSGVPSRLSGSGFGTDFTLTISSLQPEDFGNYYCQQSYTVPYTFGGGTKVEIR
notes: Fab; printed HC runs into the start of CH1
B2: the Ki is 0.6 nM with human plasma kallikrein [6] and roughly 1 nM with mouse plasma kallikrein [7].

B3: X67-D03 (antibody, V domains shown)
VH: B2 VH with F105N
VL: B2 VL
notes: Tested as IgG; Single point mutant (F to N in HC CDR3) of M142-H08; also called X67-D03 (IgG); 559A-X67-D03
Regarding B3, the Ki with mouse plasma kallikrein [8] is 0.7 nM; in [9] it was 0.1 nM.

B4: X67-D03 (IgG) (antibody, V domains shown)
VH: B2 VH with F105N
VL: B2 VL
notes: printed HC runs into CH1; also called 559A-X67-D03
As to B4, the Ki in the assay with human plasma kallikrein [10] and with human plasma kallikrein [11] was 0.1 nM each time.

B5: X67-G04 (IgG) (antibody, V domains shown)
VH: B2 VH with F105A
VL: B2 VL
notes: printed HC runs into CH1
Turning to B5, the Ki with human plasma kallikrein [10] and with human plasma kallikrein [11] was 0.35 nM each time.

B6: M35-G04 (antibody, V domains shown)
VH: EVQLLESGGGLVQPGGSLRLSCAASGFTFSYYHMSWVRQAPGKGLEWVSVISPSGGSTKYADSVKGRFTISRDNSKNTLYLQMNSLRAEDTAVYYCARGGSSDYAWGSYRRPYYFDYWGQGTLVTVSS
VL: DIQMTQSPATLSLSPGERATLSCRASQSVSSYLAWYQQKPGQAPRLLIYDASNRATGIPARFSGSGSGTDFTLTISSLEPEDFAVYYCQQRSNWPRGFTFGPGTKVDIK
notes: also called 559A-M35-G04; 559A-M0035-G04
Consider B6, for which the Ki in [1] turned out to be 0.09 nM; in assay [2] it was 2.9 nM; with mouse plasma kallikrein [3], 8 nM; in [4], 1.1 nM; in assay [5], 0.8 nM.

B7: M29-D09 (Fab, V domains shown)
VH: EVQLLESGGGLVQPGGSLRLSCAASGFTFSWYTMVWVRQAPGKGLEWVSYIYPSGGATFYADSVKGRFTISRDNSKNTLYLQMNSLRAEDTAVYYCAMGSYDYIWGFYSDHWGQGTLVTVSS
VL: QSALTQPPTVSVSPGQTARITCSGNKLGDKYVAWYQQKPGQSPMLVIYQDTKRPSRVSERFSGSNSANTATLSISGTQALDEADYYCQAWDSSIVIFGGGTRLTVL
notes: also called 559A-M29-D09 (sFab); 559A-M0029-D09
Turning to B7, the Ki was 0.27 nM in [1], 0.7 nM in assay [2], 0.34 nM in assay [4] and 0.24 nM in assay [5].

B8: M6-D09 (antibody, V domains shown)
VH: EVQLLESGGGLVQPGGSLRLSCAASGFTFSFYYMVWVRQAPGKGLEWVSVIYPSGGITVYADSVKGRFTISRDNSKNTLYLQMNSLRAEDTAVYYCARDKWAVMPPYYYYAMDVWGQGTTVTVSS
VL: DIQMTQSPSSLSASVGDRVTITCRASQSIRNYLNWYQQKPGKAPNLLIYAASTLQSGVPARFSGSGSGTDFTLTISSLQPEDFATYYCQQLSGYPHTFGQGTKLEIK
notes: also called M06-D09; 559A-M06-D09
Consider B8, for which the Ki stood at 3.4 nM in assay [1]; 5.9 nM in assay [2]; 3.9 nM in the assay with mouse plasma kallikrein [3]; 13.5 nM in [4]; 2.5 nM in assay [5].

B9: M160-G12 (IgG) (antibody, V domains shown)
VH: EVQLLESGGGLVQPGGSLRLSCAASGFTFSHYLMTWVRQAPGKGLEWVSYISPSGGHTIYADSVKGRFTISRDNSKNTLYLQMNSLRAEDTAVYYCARVARGIAARSRTSYFDYWGQGTLVTVSS
VL: DIQMTQSPSFLSASVGDRVTITCRASQGISSYLAWYQQKPGKAPKLLIYAASTLQSGVPSRFSGSGSGTEFTLTISSLQPEDFATYYCQQLNSYPLTFGGGTKVEIK
notes: Human IgG; also called R84-D02
For B9, the Ki was 5.6 nM with human plasma kallikrein [12] and less than 1 nM in the assay with mouse plasma kallikrein [7].

B10: X59-C07 (antibody, V domains shown)
VH: B9 VH
VL: DIQMTQSPSSLSASVGDRVTVTCRAGRSISTYVNWYQQKPGKAPKLLIYAASSLQSGVPSRFSGSRSGTDFTLTISSLQPEDFATYYCQQSQSTPYTFGQGTKLEVK
notes: Found by ROLIC light chain shuffling
In turn, B10 displayed a Ki in the assay with human plasma kallikrein [13] of 6.1 nM.

B11: X63-G06 (Fab, V domains shown)
VH: B9 VH
VL: DIQMTQSPGTLSLSPGERATLSCRTSQFVNSNYLAWYQQTPGQAPRLLIYGASSRATGIPDRFSGTGYGTDFTLTISRLEPEDYGTYYCQQSSRTPWTFGQGTRVEIK
notes: Non-germlined Fab discovered using ROLIC, same HC but different LC as M160-G12; also called X63-G06 (Fab)
B11 came in with a Ki in the assay with human plasma kallikrein [14] of 0.4 nM.

B12: X64-F04 (antibody, V domains shown)
VH: B9 VH
VL: DIQMTQSPATLSLSPGERATLSCRASQIVSSNYLAWYQQKPGQAPRLLIYGASNRATGIPDRFSGSGSGTEFTLTISSLQSEDFAIYYCQQSFNIPYTFGQGTRVDIK
notes: as for B10
On to B12, for which the Ki in the assay with human plasma kallikrein [13] came to 1.9 nM.

B13: X63-G10 (antibody, V domains shown)
VH: B9 VH
VL: DIQMTQSPDSLSASVGDRVTITCRASQSISNYLNWYQQKPGKAPKLLIYAASSLQSGVPSRFSGSGSGTDFTLTISGLQPEDFASYYCQQSYTSPYTFVQGTKLEIKR
notes: as for B10
With B13, the Ki in the assay with human plasma kallikrein [13] was 9 nM.

B14: M160-G12 (antibody, V domains shown)
VH: B9 VH
VL: B9 VL
notes: also called R84-D02
As for B14, the Ki in [2] was determined as 5 nM; with mouse plasma kallikrein [3] it was 0.2 nM.

B15: X60-D01 (antibody, V domains shown)
VH: B9 VH
VL: DIQMTQSPGTLSLSPGERATLSCRASQIVSSRYLAWYQQRPGQAPRLLIYGAASRATGIPDRFSGSGSGTDFTLTISSLQAEDFATYYCQQTYSSPFTFGQGTKMEIK
notes: as for B10
For the molecule B15, the Ki in the assay with human plasma kallikrein [13] was 2 nM.

B16: M162-A04 (IgG) (antibody, V domains shown)
VH: EVQLLESGGGLVQPGGSLRLSCAASGFTFSHYIMMWVRQAPGKGLEWVSGIYSSGGITVYADSVKGRFTISRDNSKNTLYLQMNSLRAEDTAVYYCAYRRTGIPRRDAFDIWGQGTMVTVSS
VL: DIQMTQSPSTLSASVGDRVTITCRASQSISSWLAWYQQKPGKAPNLLIYKASTLESGVPSRFSGSGSGTEFTLTISSLQPDDFATYYCQQYNTYWTFGQGTKVEIK
notes: Human IgG; also called R84-H05; 559A-M0162-A04
In the case of B16, the Ki with human plasma kallikrein [12], in the assay with rat plasma kallikrein and in the assay with mouse plasma kallikrein [7] was 2 nM each time.

Source of the values: patent US9266964.
